{"source": "patent US20260109787A1", "about": "(NATIONAL UNIVERSITY CORPORATION YAMAGATA UNIVERSITY, published 2026)", "binders": {"B1": {"name": "VHH-SpyTag (fragment released from VHH-SpyTag-CD3 L chain by thrombin) (other, not shown: small tags and cut ends)", "chain": "QVQLVESGGALVQPGGSLRLSCAASGFPVNRYSMRWYRQAPGKEREWVAGMSSAGDRSSYEDSVKGRFTISRDDARNTVYLQMNSLKPEDTAVYYCNVNVGFEYWGQGTQVTVSSGGSGGAHIVMVDAYKPTKGGSGGGGSGG", "notes": "Seen only as a band on SDS-PAGE, together with VHH-SpyCatcher"}, "B2": {"name": "VHH-SpyTag-CD3 L chain (other)", "chain": "QVQLVESGGALVQPGGSLRLSCAASGFPVNRYSMRWYRQAPGKEREWVAGMSSAGDRSSYEDSVKGRFTISRDDARNTVYLQMNSLKPEDTAVYYCNVNVGFEYWGQGTQVTVSSGGSGGAHIVMVDAYKPTKGGSGGGGSGGLVPRGSHMHMDIVLTQSPAIMSASPGEKVTMTCSASSSVSYMNWYKQKSGTSPKRWTYDTSKLASGVPARFSGSGSGTSYSLTISSMEAEDAATYYCQQWSSNPPTFGSGTKLEIKRTVAAPSVFIFPPSDEQLKSGTASVVCLLNNFYPREAKVQWKVDNALQSGNSQESVTEQDSKDSTYSLSSTLTLSKADYEKHKVYACEVTHQGLSSPVTKSFNRGEC", "notes": "Fusion protein expressed in Expi293F cells; also called first protein; VHH-SpyTag-CD3 L chain region"}, "B3": {"name": "VHH-SnoopTag (fragment released from VHH-SnoopTag-Herceptin L chain by thrombin) (other, not shown: small tags and cut ends)", "chain": "QVQLVESGGALVQPGGSLRLSCAASGFPVNRYSMRWYRQAPGKEREWVAGMSSAGDRSSYEDSVKGRFTISRDDARNTVYLQMNSLKPEDTAVYYCNVNVGFEYWGQGTQVTVSSGGSGGKLGDIEFIKVNKGGSGGGGSGG", "notes": "Seen only as a band on SDS-PAGE, together with VHH-SnoopCatcher"}}, "key": {"[1]": {"target": "T1, VHH-SpyCatcher (fragment released from VHH-SpyCatcher-CD3 H chain by thrombin)", "T1 construct": "Seen only as a band on SDS-PAGE, together with VHH-SpyTag", "assay": "SDS-PAGE of the purified thrombin-cleaved sample"}, "[2]": {"target": "T2, VHH-SpyCatcher-CD3 H chain", "T2 construct": "Fusion protein expressed in Expi293F cells; also called second protein; VHH-SpyCatcher-CD3 H chain region", "assay": "SDS-PAGE before and after thrombin cleavage; the complex bands are lost after cleavage", "description": "Next, it was examined whether the band at the estimated molecular weight of the complex in Example 1(3) above was derived from the complex that included the VHH-SpyTag-CD3 L chain and the VHH-SpyCatcher-CD3 H chain. Specifically, the protein was purified in the same manner as in Example 1(2) above, and the elution fraction after the purification was added to a thrombin buffer (2.5 mmol/l CaCl₂), 150 mmol/l NaCl, 20 mmol/l Tris-HCl (pH8.0)). After the addition, the resulting mixture was dialyzed for 6 hours. Then, thrombin (cleaving ability: 2 unit/μl, manufactured by Wako Pure Chemical Industries, Ltd.) was added in accordance with the yield of the protein. After the addition, the mixture was left to stand at 25° C. overnight. After the standing, a sample after the cleavage reaction was purified using a protein A column. After the purification, a purified thrombin-cleaved sample was obtained. Then, SDS-PAGE was conducted. The SDS-PAGE was conducted in the same manner as in Example 1(3) above, except that the purified thrombin-cleaved sample was used as a sample for the SDS-PAGE in addition to the purified sample. […]"}, "[3]": {"target": "T3, VHH-SnoopCatcher (fragment released from VHH-SnoopCatcher-Herceptin H chain by thrombin)", "T3 construct": "Seen only as a band on SDS-PAGE, together with VHH-SnoopTag", "assay": "SDS-PAGE of the purified thrombin-cleaved sample"}}, "data": [{"binder": "B1", "values": [{"measurement": "binding result", "setting": "[1]", "value": "binds"}]}, {"binder": "B2", "values": [{"measurement": "binding result", "setting": "[2]", "value": "binds"}]}, {"binder": "B3", "values": [{"measurement": "binding result", "setting": "[3]", "value": "binds"}]}]}
